Experimental data taken from article PMC7375816.

Target: Yeast Hsp90 wild-type FRET hetero-dimer (donor 61C + biotinylated acceptor 385C) (yeast | D. melanogaster)

B1: cochaperone Aha1 (natural protein)
chain: MVVNNPNNWHWVDKNCIGWAKEYFKQKLVGVEAGSVKDKKYAKIKSVSSIEGDCEVNQRKGKVISLFDLKITVLIEGHVDSKDGSALPFEGSINVPEVAFDSEASSYQFDISIFKETSELSEAKPLIRSELLPKLRQIFQQFGKDLLATHGNDIQVPESQVKSNYTRGNQKSSFTEIKDSASKPKKNALPSSTSTSAPVSSTNKVPQNGSGNSTSIYLEPTFNVPSSELYETFLDKQRILAWTRSAQFFNSGPKLETKEKFELFGGNVISELVSCEKDKKLVFHWKLKDWSAPFNSTIEMTFHESQEFHETKLQVKWTGIPVGEEDRVRANFEEYYVRSIKLTFGFGAVL
increase in ATPase activity of Hsp90 in the presence of 3 µM Aha1, normalised to the activity without Aha1: 17 fold
